Results as given in publication PMC11306496, “Myosin Va-dependent Transport of NMDA Receptors in Hippocampal Neurons” (Neuroscience Bulletin, 2024).

Target: T1, myosin Va (rat (endogenous in hippocampus), UniProt Q9QYF3 1-1828)
T1 construct: myosin Va, rat, endogenous in hippocampus; also called MyoVa; source: endogenous, rat hippocampal homogenate
Assay: co-IP; total rat hippocampal lysates with primary antibody and Protein A/G agarose, 4°C; buffer pH 7.4, 0.05 mol/L HEPES, 0.15 mol/L NaCl, 0.5% NP-40, 1% Triton X-100; non-immune IgG as control; slices untreated or treated with PMA (0.5 umol/L, 10 min) and/or AIP (1 umol/L)
Conditions: partners not purified

T1 sequence (Q9QYF3 whole entry): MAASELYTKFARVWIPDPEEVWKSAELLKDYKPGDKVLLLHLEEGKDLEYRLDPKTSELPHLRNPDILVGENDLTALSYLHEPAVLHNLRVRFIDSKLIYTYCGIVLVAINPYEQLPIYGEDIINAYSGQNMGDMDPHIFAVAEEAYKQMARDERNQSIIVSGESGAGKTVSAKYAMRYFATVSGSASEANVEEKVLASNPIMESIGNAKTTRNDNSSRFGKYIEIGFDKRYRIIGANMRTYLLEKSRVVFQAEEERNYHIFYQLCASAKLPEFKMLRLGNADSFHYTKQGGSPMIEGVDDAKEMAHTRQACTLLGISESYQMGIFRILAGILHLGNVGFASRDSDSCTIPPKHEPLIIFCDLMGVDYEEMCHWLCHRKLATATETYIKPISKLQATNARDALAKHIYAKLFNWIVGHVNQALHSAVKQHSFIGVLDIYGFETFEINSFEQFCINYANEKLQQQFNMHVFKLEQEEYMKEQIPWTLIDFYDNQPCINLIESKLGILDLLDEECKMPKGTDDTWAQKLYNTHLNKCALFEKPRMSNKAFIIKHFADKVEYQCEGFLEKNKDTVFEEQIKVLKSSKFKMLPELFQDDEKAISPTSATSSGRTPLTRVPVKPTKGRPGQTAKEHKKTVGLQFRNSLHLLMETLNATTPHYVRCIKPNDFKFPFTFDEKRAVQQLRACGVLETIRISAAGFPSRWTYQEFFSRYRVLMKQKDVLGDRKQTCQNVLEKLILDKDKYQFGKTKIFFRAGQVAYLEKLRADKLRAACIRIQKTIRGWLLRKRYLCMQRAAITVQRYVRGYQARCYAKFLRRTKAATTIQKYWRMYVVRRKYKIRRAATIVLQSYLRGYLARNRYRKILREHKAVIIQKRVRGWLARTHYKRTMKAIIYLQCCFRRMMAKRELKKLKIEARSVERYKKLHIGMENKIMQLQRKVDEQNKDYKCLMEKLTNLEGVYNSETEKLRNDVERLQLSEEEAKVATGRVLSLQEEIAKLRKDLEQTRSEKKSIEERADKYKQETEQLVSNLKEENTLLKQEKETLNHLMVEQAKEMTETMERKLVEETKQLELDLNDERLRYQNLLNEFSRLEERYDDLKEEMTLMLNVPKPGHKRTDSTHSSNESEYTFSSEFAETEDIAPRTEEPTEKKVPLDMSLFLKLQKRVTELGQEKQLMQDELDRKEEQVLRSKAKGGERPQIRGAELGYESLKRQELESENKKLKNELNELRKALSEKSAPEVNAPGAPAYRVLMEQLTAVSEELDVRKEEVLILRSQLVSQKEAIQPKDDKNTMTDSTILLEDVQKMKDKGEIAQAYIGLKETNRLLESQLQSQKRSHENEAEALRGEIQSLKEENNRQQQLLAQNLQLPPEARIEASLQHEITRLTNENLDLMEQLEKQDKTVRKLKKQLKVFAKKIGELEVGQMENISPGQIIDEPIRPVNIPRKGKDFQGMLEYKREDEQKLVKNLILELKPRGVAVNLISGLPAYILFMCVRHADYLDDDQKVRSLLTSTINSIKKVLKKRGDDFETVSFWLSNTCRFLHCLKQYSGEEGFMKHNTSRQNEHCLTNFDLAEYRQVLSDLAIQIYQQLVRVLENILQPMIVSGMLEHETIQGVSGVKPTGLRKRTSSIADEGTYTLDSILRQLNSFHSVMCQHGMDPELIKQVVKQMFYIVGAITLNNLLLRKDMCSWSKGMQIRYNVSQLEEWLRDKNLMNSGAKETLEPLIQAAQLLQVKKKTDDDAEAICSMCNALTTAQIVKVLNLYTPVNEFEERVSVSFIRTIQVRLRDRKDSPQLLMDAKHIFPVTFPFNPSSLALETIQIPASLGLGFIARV

B1: NMDA receptor subunit GluN2A (receptor)
chain: not shown
notes: NMDA receptor subunit GluN2A, rat, endogenous in hippocampus; source: endogenous, rat hippocampal homogenate (slices or cultured hippocampal neurons)
With B1 the “co-IP signal with PMA, normalised to control (IP with anti-MyoVa)” value was 1.59 fold of control.
